The results in this text go back to a protein production outcome set (Wang et al. 2014).

This data set in a line: label from the status in PepcDB records.
“MTLGLTPKFVKIFLFVGLMLLSTSLAVIFPLNSVEGLGSGVTKTVLDNGLTVLIKEIPTAPVVSLQVWYRVGSRHEPKGENGIAHQLEHLMFKGTQSRPVQFGQLFYALGSSSNAFTSYDMTAYHHTVRADQLEPLLILEADRLRHTLITPDALESEKRVVISELQGYENSPEYRLSRAVMAALYPKHPYGLPVGGTASDVEQLTLAAVKSFYQQYYRPDNAVVVIAGNVRAARALELVKSTFGAIPQPPEPLISPPLPPPGAVSGQRIRLREPGSAPLLQILVPIPGITHPDQAALDVLDMLLSGGRSSYFYQELMETGQASSAYSYVAALQEGGWFEMGAIASPDQSLETIEQSIGKMLQQLAERPLSLAELQRAKQQLKANFILRNRDIDAQASQLANDETLTGDYRFSDRHLAAIEKVTAADVQRVVQTYFGRDRWIVGEFIPSEFADVELSGRPAVQTTAHNLIGEPVDPQTIAAYLPQGSAQAAPAVKNNGVETFTLENGLRVLLLVDRSTPTVTLAGRIDAGTAYDLLTQPGVANLTAANLLNGTRTKTALTLAQTLEDRGISLEFSAFRDGVDVEGYALASELPTLLATLGEVLQEATFPEAEFKLSQQRYLTALGLEADDPVRWGRRVLQETLYPAHHPLHPFATPESVQAIQRQDLLNFYRAAYRPDRTILTLVGDFDPLAVRSRLKDIFGPWQPPTAPLSLTFPAVSPPPQTLFRNAVIAGKSQAITYLGTPGIDRRHPRFYAAMLMNHILGGDTLASRLGTEIRDRQGLTYGIYSFFTASRQAGPFMIQLQTAPEDTAKAIQATLQLLREARRQGFTAAELEAAKRSLSNTYLVELANVDVVARTLLANASVDLPPQELQQFSDRLQQVSLAEVNQALRELIDPERLVIVTAGPAVSFSP”: the protein production entry is “failed”.

For the sequence “MTLKAGIVGIGMIGSDHLRRLANTVSGVEVVAVCDIVAGRAQAALDKYAIEAKDYNDYHDLINDKDVEVVIITASNEAHADVAVAALNANKYVFCEKPLAVTAADCQRVIEAEQKNGKRMVQIGFMRRYDKGYVQLKNIIDSGEIGQPLMVHGRHYNASTVPEYKTPQAIYETLIHEIDVMHWLLNEDYKTVKVYFPRQSSLVTTLRDPQLVVMETTSGINIVVEVFVNCQYGYDIHCDVTGEKGMAELPTVASAAVRKAAKYSTDILVDWKQRFIDAYDIEFQDFFDRLNAGLPPAGPTSWDGYLAAVTADACVKSQETGNTEIVELPSKPDFYK”, the protein production result is “not failed”.

Take “MTLLRVGGVPEPFNEIFMQAQEGALPSTKLQVEFLGVAGGSGAALEMLAKCELDVAVTLTESAVARTKAAASGLAVHSVYVASPLAWGVAVSSKKTDWTDLNSLDAAVLRGESIRAGFSRRGSGSHLLLSVFASDRGWISTGIQNDILKSFECGSFDGLIQAAVAGDIDMFLWETCFTKECAATRQGLIRLVGEYAPSWPAFVLVCRDDAHVRAAVSELKREIEPLQRKFCTGEGLDILQNKYGFSLESAKLWLSRLQFAEPDEALSAEQWRSVERALELTAGSRSSSR”: the protein production entry was “not failed”.

With “MTLNAKGESNQILVDKEVHSTNLLLDIDEKPELFQGLLLSFQHVFAMFGATILVPLILGMPVSVALFASGCGTLIYQVATKFKVPVYLGSSFAYITAMALAMKQMHGDISAAQTGILFVGLIYVVVATVIKFVGNSWVDKILPPIIIGPMIIVIGLGLANSAVTNAGFVAKGDWRKMLVAVVTFLIAAFINTKGKGFIKIIPFLFAIIGGYILSIILGLVDLSPVEKAAWFELPKFYLPFKTGLFHSYKLYFGPEMLAILPISIVTIAENIGDHTVLGQICGRNFLKKPGLNRLLIGDGLATAFSALIGGPAETTYGENTGVIGMTRIASVTVIRNAAFIAIAFSFFGKFTALISTIPSAVLGGMAILLYGVIASNGLKVLIENRVNFAEVRNLIIASSMLVLGLGGAVLDLGALTLSGTALSAIVGIILNLILPKESMKS”, the protein production entry is on record as “not failed”.

As to “MTLNIYTEEWAPISFSVDGKPDGLAVQVVQEIQKRIDNQDPIKVVPWARGWKIITEQPNTVLFTMTRTAERERMFSLIGPVAVGTTNFYALKNSNLKINLEHHHHHH”, the protein production result is “not failed”.

Take “MTLRTRITLLTAGLLLVAFLVLGFALEGLLRNFLYGSLRTDLKEAANQVVRLLNLGGQALLEAGLPPSLYAEVQLLPEEDPALLAREGGISLQKSPALGSQRLLLQEEAYRELLKRGEVWAYAELPREGHPLRLLVYARKVEVNLSGSVWKGALLVGRPTEDLEATLSQFARIYAGTALFVLLLSLFLARGLVARALEPLEWAARKAEAMSARPEPLPEPETRDEVAALVKALNGMLTRLQEAFEAQTRFLQDASHELRTPITAILGHVGYLLRRTPLTEAQRESLEVVKREAERMGKLVSDLLDLSQSGTWRIRPVPVRVLDLLEEVREEFAKSFDGAILVEAPEDLYVLGDPDRLHQVMANLVSNALKAGARHVWLRAFDLGDKAVVRVEDDGEGIPEEHLPHLFERFYRVDKARDRERGGSGLGLAIVKAILEAHGGEVWVESQVGKGTAFSFSLPASGPPPPPR”: the protein production result is reported as “failed”.

As to “MTLTALNAISPIDGRYVNKTRALSPYFSEFALTYYRLMVEIKWFESLAANDTIPEVPALDNKARKFLSDLISNFNESEAEKIKEFEKQTNHDVKAVEYYLQDKFQENEQLKSCVAFIHFACTSEDINNLAYALMIKQAIAQVIQPTIAEIMGSITLLGKQHADVAMLSRTHGQPATPTTMGKELVNFVARLKRPQQQLAEVLIPAKFNGAVGNYNAHVAAYPEVDWRKHCANFVTSLGLSFNAYTTQIEPHDGIAEVSQIMVRINNILLDYTQDIWSYISLGYFKQKTIAEEVGSSTMPHKVNPIDFENAEGNLGLSNALFIHFANKLTQSRMQRDLSDSTVLRNLGVAFSYSLIAYHSVAKGNDKLQINKSALQKDLSENWEVLAEAIQTVMRRYNEPNAYEQLKELTRGQMIDAENLKKFIKTLSIPEEAKAELMKLTPETYTGLATQLVKAFS”, the protein production result is recorded as “not failed”.

Take “MTLTQQKVKFFSKAYHDVKRLYLSAFPPRERFPYFCLLLNSLRSLVTCYAYYDKERFVGFAYIIESKEQVFILFLAVNGSVRSKGYGSMILAQIREYAGRKPLILTIEPVEKDSPNSEQRRQRLSFYERNGYQLTSHYYYEGQERYQILTTEQSIDLERFQKLVKRAVLGLVLITV”: the protein production entry is “failed”.

Consider “MTLWSVASVLTLAFIFWLNAVMTASPYIVYLSGLKKQSERKNRLVALLLLLASLLYFFLKVGSFAAEGFAGMIDTTYMQFIWTGPVGLFIQLQIAVAIAWIVYSVVKLKRIKWVLYVVAIGLMGWSFLSIGHGSDAVWWGKLALLTHLLVAWVWFGSLNSLRKLATSVPLAKAKAIMERFGVHMSAAVPILLIAGLVMYRSATGRWMPELPLTSYDTVLLAKLVFVALILLVAALHKLKFVPQLNDNAAAKRLKNSITAEMVLAVTIFILASALSSAFSPG”, for which the protein production entry is reported as “failed”.

For “MTLYKQLVAGMIAVFILLLISVFTIEFNTTRNSLEQQQRSEVNNTINTVGLALAPYLEKKDTIAVESVINALFDGSSYSIVRLIFLDDGTEILRSYPIQPNNVPAWFTQLNLFEPIHDRRVVTSGWMQLAEVEIVSHPGAAYAQLWKALIRLSIAFLAILVIGMFAVAFILKRSLRPLQLIVNKMEQVANNQFGEPLPRPNTRDLIYVVDGINKMSEQVEKAFKAQAKEAQQLRERAYLDPVSHLGNRAYYMSQLSGWLSESGIGGVAILQAEFIKELYEEKGYEAGDGMVRELADRLKNSITIKDISIARISTYEFGIIMPNMDETELKIVAESIITCVDDINPDPTGMAKANLSLGVVSNKRQSSTTTLLSLLDNALLKRNPILS”, the protein production entry is recorded as “failed”.

As for “MTMSPSQDQTENTDMLTEIAILYYQEGATQEEISKKFGLSRAKVGRMLRKAREEGIVEITVKFHPVYSVQLEQKLVEKFNLKRALISLDQPNTNEQRKQVAALVSSYLNNNLQEGMAVAVGQGQNVAAVADHAGIVTQRNARFVSAIGGTHRSGDIINADHICRRLAKKYGGSSETLYAPAYVNDPSLRSAFMEHATIKETLSQARKAEFALVGIGDMDENSHMVKLGFFTPKEFVEARLNDGIVGDIGGFDFFKLDGTDADTLMRGRVIGLEMEDLRQIPNVVAMASESRKALSIMGALRTGVIDVLATSVSCAMALLNLAENEE”, the protein production result is on record as “not failed”.

Consider “MTNERVMQLIREAYEKNLTTLDLSENQLTQLPSEITELKNLTTLNLSGNQLTQLPSEIGELKSLTSFDLSVNQLTQLPPEIGELKNLTILNVYRNQLIQLLPEITELKNLTTLDLSLNKLTQLPPLEHHHHHH”, for which the protein production entry is reported as “failed”.
